What was measured:
FUS-mEmerald [1] = molecular target: FUS-mEmerald (UniProt P35637)
FUS-mEmerald [2] = molecular target: FUS-mEmerald (UniProt P35637); test: tie line gradient analysis (FUS dilute phase concentration by confocal detection in a microfluidic flow cell); mEmerald-tagged FUS; DNAJB6 varied 0-4 µM; FUS dilute phase concentration read after phase separation

Chain of UniProt P35637 (P35637 whole entry): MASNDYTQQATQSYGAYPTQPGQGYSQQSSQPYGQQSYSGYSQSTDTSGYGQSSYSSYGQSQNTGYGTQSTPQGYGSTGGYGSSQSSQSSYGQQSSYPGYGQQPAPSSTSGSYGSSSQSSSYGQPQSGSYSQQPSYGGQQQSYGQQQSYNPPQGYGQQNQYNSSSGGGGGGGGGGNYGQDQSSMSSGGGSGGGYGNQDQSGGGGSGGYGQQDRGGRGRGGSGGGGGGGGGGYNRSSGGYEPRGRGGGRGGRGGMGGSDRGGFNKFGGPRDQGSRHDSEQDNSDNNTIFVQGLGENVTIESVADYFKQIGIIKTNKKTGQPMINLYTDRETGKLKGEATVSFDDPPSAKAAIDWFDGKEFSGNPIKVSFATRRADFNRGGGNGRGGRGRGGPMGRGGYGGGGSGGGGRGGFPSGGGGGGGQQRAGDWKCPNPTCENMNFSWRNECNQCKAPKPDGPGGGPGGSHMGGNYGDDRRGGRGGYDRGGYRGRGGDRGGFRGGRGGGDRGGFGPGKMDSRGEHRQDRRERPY

- Young's modulus of FUS + DNAJB6 condensates by AFM, 2 h (~31 kPa) to 48 h; FUS-only condensates rise from ~9 kPa to ~25,000 kPa (FUS-mEmerald [1]): 40 kPa
- tie line gradient (µM DNAJB6 / µM FUS) (FUS-mEmerald [2]): 3
Substance: purified recombinant human DNAJB6 (from UniProt O75190 1-326) (natural protein)

— publication PMC12638947
